Experimental data: article PMC4243253

System: N[C@@H](CC(=O)c1ccccc1NC=O)C(=O)O
Experiment: purified protein
Conditions: pH 7.4; 25.0 °C

With BaKynB (Bacillus anthracis) the Km was 400 ± 50 µM, the Vmax was 0.0654 µmol/min and the kcat/Km was 126000 M⁻¹ s⁻¹.
